This note sets out measurements from paper doi:10.1101/2024.11.12.623303 (bioRxiv, 2024).

The target in this test is T1, recombinant CD45RO-Fc protein (Catalog # 10642-CD, R&D systems) (UniProt P08575-4 26-416).
T1 sequence (looked up): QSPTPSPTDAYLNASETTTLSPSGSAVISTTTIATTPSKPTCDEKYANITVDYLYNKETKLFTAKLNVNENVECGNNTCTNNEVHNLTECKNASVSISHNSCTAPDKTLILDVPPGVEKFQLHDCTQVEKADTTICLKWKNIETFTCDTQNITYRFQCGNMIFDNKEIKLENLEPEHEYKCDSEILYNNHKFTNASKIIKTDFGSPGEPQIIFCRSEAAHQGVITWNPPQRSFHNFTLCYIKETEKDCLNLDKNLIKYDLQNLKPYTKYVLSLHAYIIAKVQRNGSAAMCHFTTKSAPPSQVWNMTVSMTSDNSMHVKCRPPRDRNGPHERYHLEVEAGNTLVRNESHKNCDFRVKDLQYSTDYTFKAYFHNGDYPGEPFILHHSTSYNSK
Nature of the test: MST.

By Kd is commonly meant the free concentration of one partner at which half of the binding sites on the other are occupied at equilibrium, for simple one-to-one binding.

B1: BTN2A2-His tag protein (without Fc tag) (domain or fragment, human, UniProt Q8WVV5 33-237, looked up)
chain: QFTVVGPANPILAMVGENTTLRCHLSPEKNAEDMEVRWFRSQFSPAVFVYKGGRERTEEQMEEYRGRITFVSKDINRGSVALVIHNVTAQENGIYRCYFQEGRSYDEAILRLVVAGLGSKPLIEIKAQEDGSIWLECISGGWYPEPLTVWRDPYGEVVPALKEVSIADADGLFMVTTAVIIRDKYVRNVSCSVNNTLLGQEKETV
modifications: fluorescently labeled by covalent labeling (Monolith protein labeling kit RED-NHS 2nd generation, amine reactive)
In the case of B1, the Kd came out at 63.5 nM.
